Assay results from patent US20040235726A1, “Glucagon-like peptides (glp-1) and treatment of respiratory distress” (priority 2001, published 2004).
“And” between values parts separate entries of the source, which are not always exact repeats. Identical values can stand only once. Where no end group is shown, it is not given here.

B1: Val^8-Leu^16-Glu^26-GLP-1 (7-37) OH (peptide)
peptide: HVEGTFTSDLSSYLEGQAAEEFIAWLVKGRG-OH
B2: Val^8-Lys^22-Glu^30-GLP-1 (7-37) OH (peptide)
peptide: HVEGTFTSDVSSYLEKQAAKEFIEWLVKGRG-OH
B3: Val^8-Lys^22-Glu^23-GLP-1 (7-37) OH (peptide)
peptide: HVEGTFTSDVSSYLEKEAAKEFIAWLVKGRG-OH
B4: Val^8-Glu^22-Lys^23-GLP-1 (7-37) OH (peptide)
peptide: HVEGTFTSDVSSYLEEKAAKEFIAWLVKGRG-OH
B5: Val^8-Lys^33-Val^34-GLP-1 (7-37) OH (peptide)
peptide: HVEGTFTSDVSSYLEGQAAKEFIAWLKVGRG-OH
B6: Val^8-Lys^33-Asn^34-GLP-1 (7-37) OH (peptide)
peptide: HVEGTFTSDVSSYLEGQAAKEFIAWLKNGRG-OH
B7: Val^8-Gly^34-Lys^35-GLP-1 (7-37) OH (peptide)
peptide: HVEGTFTSDVSSYLEGQAAKEFIAWLVGKRG-OH
B8: Val^8-Gly^36-Pro^37-GLP-1 (7-37) NH2 (peptide)
peptide: HVEGTFTSDVSSYLEGQAAKEFIAWLVKGGP-NH2

These molecules were tested against human GLP-1 receptor (human, UniProt P43220 24-463) (assay: cell-based or functional assay). Settings: not given.

Q: B1 was tested. Which “GLP-1 receptor activation relative to Val^8-GLP-1 (7-37) OH” value did it give?
A: The value was 0.5 relative to Val^8-GLP-1 (7-37) OH.

Q: How did the “GLP-1 receptor activation relative to Val^8-GLP-1 (7-37) OH” value turn out when B2 was run?
A: Its value is 0.8 relative to Val^8-GLP-1 (7-37) OH.

Q: B3 was tested. Which “GLP-1 receptor activation relative to Val^8-GLP-1 (7-37) OH” value did it give?
A: Its value is 0.8 relative to Val^8-GLP-1 (7-37) OH.

Q: For B4, which “GLP-1 receptor activation relative to Val^8-GLP-1 (7-37) OH” value is on record?
A: The value was 3.1 relative to Val^8-GLP-1 (7-37) OH.

Q: How did the “GLP-1 receptor activation relative to Val^8-GLP-1 (7-37) OH” value turn out when B5 was run?
A: Its value is 0.2 relative to Val^8-GLP-1 (7-37) OH.

Q: Which “GLP-1 receptor activation relative to Val^8-GLP-1 (7-37) OH” value does the source give for B6 here?
A: Its value is 0.2 relative to Val^8-GLP-1 (7-37) OH.

Q: With B7 as the molecule, how does the “GLP-1 receptor activation relative to Val^8-GLP-1 (7-37) OH” value read?
A: Its value is 0.7 relative to Val^8-GLP-1 (7-37) OH.

Q: With B8 as the molecule, how does the “GLP-1 receptor activation relative to Val^8-GLP-1 (7-37) OH” value read?
A: The value was 1.2 relative to Val^8-GLP-1 (7-37) OH.

These molecules were tested against T1, human GLP-1 receptor (Homo sapiens, UniProt P43220) (assay: In vitro potency assay (GLP-1 receptor signaling, CRE-BLAM reporter)). Settings: HEK-293 Aurora CRE-BLAM cells expressing the human GLP-1 receptor; EC50-based potency relative to Val^8-GLP-1 (7-37)OH (=1.0); several values in a cell are repeat determinations.
T1 construct: expressed in transfected cells; host or cells: HEK-293 Aurora CRE-BLAM cells
Assay type: cell-based
Text: The extent of the induction of cAMP levels can then be measured using a cAMP response element which drives the expression of a reporter gene such as luciferase or beta lactamase.
These HEK-293 cells have stably integrated a DNA vector having a cAMP response element (CRE) driving expression of the β-lactamase (BLAM) gene. […] The assay is further described in Zlokarnik, et al. (1998) Science 279:84-88 (See also Example 3).
The day after seeding, the medium is replaced with plasma free medium.

T1 sequence (P43220 24-463): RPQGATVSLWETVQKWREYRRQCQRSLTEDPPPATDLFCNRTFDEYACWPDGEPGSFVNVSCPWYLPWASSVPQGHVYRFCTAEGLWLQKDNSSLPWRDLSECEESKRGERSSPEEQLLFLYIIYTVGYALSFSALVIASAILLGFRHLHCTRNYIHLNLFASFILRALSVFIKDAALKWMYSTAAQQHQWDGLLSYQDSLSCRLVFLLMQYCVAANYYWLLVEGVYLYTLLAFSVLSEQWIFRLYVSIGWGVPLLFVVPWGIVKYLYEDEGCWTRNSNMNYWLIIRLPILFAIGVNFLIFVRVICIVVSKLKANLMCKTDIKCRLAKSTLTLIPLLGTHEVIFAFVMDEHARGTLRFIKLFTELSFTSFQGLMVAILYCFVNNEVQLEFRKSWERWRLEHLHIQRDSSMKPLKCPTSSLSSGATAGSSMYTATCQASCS

Q: Which “GLP-1 receptor activation relative to Val^8-GLP-1 (7-37) OH” value does the source give for “Val^8-Glu^22-Ile^33-GLP-1 (7-37) OH (HVEGTFTSDVSSYLEEQAAKEFIAWLIKGRG)” here?
A: Its value is 4.7 and 3.8 and 3.4.

Q: How did the “GLP-1 receptor activation relative to Val^8-GLP-1 (7-37) OH” value turn out when “Val^8-Glu^22-Val^25-GLP-1 (7-37) OH (HVEGTFTSDVSSYLEEQAVKEFIAWLVKGRG)” was run?
A: The value was 4.7 and 2.9.

Q: For “Val^8-Glu^22-Val^25-Ile^33-GLP-1 (7-37) OH (HVEGTFTSDVSSYLEEQAVKEFIAWLIKGRG)”, which “GLP-1 receptor activation relative to Val^8-GLP-1 (7-37) OH” value is on record?
A: Its value is 4.9 and 5.8 and 6.7.

Q: Which “GLP-1 receptor activation relative to Val^8-GLP-1 (7-37) OH” value does the source give for “Val^8-Glu^30-GLP-1 (7-37) OH (HVEGTFTSDVSSYLEGQAAKEFIEWLVKGRG)” here?
A: The value was 0.6 and 0.7.

Q: How did the “GLP-1 receptor activation relative to Val^8-GLP-1 (7-37) OH” value turn out when “Val^8-His^37-GLP-1 (7-37) OH (HVEGTFTSDVSSYLEGQAAKEFIAWLVKGRH)” was run?
A: The value was 0.7 and 1.2.

Q: How did the “GLP-1 receptor activation relative to Val^8-GLP-1 (7-37) OH” value turn out when Val^8-Lys^33-Asn^34-GLP-1 (7-37) OH was run?
A: The value was 0.2.

Q: For “Val^8-Trp^16-Glu^22-GLP-1 (7-37) OH (HVEGTFTSDWSSYLEEQAAKEFIAWLVKGRG)”, which “GLP-1 receptor activation relative to Val^8-GLP-1 (7-37) OH” value is on record?
A: Its value is 4.9 and 4.6.

Q: “Val^8-Tyr^12-GLP-1 (7-37) OH (HVEGTYTSDVSSYLEGQAAKEFIAWLVKGRG)” was tested. Which “GLP-1 receptor activation relative to Val^8-GLP-1 (7-37) OH” value did it give?
A: Its value is 1.7 and 1.8.

Q: How did the “GLP-1 receptor activation relative to Val^8-GLP-1 (7-37) OH” value turn out when “Val^8-Tyr^16-GLP-1 (7-37) OH (HVEGTFTSDYSSYLEGQAAKEFIAWLVKGRG)” was run?
A: Its value is 2.6 and 2.5.

Q: “Val^8-Tyr^16-Glu^22-GLP-1 (7-37) OH (HVEGTFTSDYSSYLEEQAAKEFIAWLVKGRG)” was tested. Which “GLP-1 receptor activation relative to Val^8-GLP-1 (7-37) OH” value did it give?
A: The value was 3.6 and 3.8.

Q: “Val^8-Tyr^18-Glu^22-GLP-1 (7-37) OH (HVEGTFTSDVSYYLEEQAAKEFIAWLVKGRG)” was tested. Which “GLP-1 receptor activation relative to Val^8-GLP-1 (7-37) OH” value did it give?
A: Its value is 5.1 and 5.9.

Same assay, conditions: in vitro potency relative to Val^8-GLP-1 (7-37)OH

Q: Exendin-4 [reference compound] was tested. Which “potency higher than Val^8-GLP-1 (7-37)OH” value did it give?
A: Its value is “approximately 5 fold”.

Q: How did the “potency higher than Val^8-GLP-1 (7-37)OH” value turn out when “Val^8-Glu^22-GLP-1 (7-37) OH (HVEGTFTSDVSSYLEEQAAKEFIAWLVKGRG)” was run?
A: Its value is “approximately 3 fold”.
